Laboratory results taken from the supplement of paper PMC10126150.
± gives the standard deviation of the averaged measurements.

Tested on: ATP
Test: switch fluorescence ratio, 500 uM ATP over buffer (Cy3 cluster intensity, sum of 5 cycles each) (fold (ratio)); higher = stronger signal-on switching upon ATP binding; sequences stand for … in TCGTCGGCAGCGTCAGATGTGTATAAGAGACAGTTTTTTTTTTTTTTTTTTTTTTTTT…TC
Details: aptamer strand: ATP DNA aptamer (quencher-CACCTGGGGGAGTATTGCGGAGGAAGG + anchor), 100 nM annealed; ATP concentration: 500 uM
In short: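 Clusters carrying Cy3-labelled switching strands on a modified Illumina MiSeq flow-cell were annealed to 100 nM quencher-labelled ATP aptamer and imaged in selection buffer. They were imaged again after 15 min with 500 uM ATP at 22 °C, over five buffer/ATP cycles with NaOH stripping and re-annealing in between. For each cluster, the fluorescence ratio is the summed Cy3 intensity of the target cycles divided by that of the buffer cycles, averaged per switch-domain sequence. Clusters outside 100-1000 RFU were left out.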
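Note: ATP exposure 15 min at 22 °C before imaging.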

| Sequence | switch fluorescence ratio |
| --- | --- |
| AGGTATGTTT | 1 ± 0.068 |
| GTCTAAGAGT | 0.9786 ± 0.0048 |
| TTTGGTGAGG | 1.01 ± 0.02 |
| TTAACTTTTT | 1.07 ± 0.053 |
| TTAAAGGCAG | 0.989 ± 0.025 |
| ACCCAGGAGC | 1.35 ± 0.12 |
| ATGTTTGAGG | 0.989 ± 0.029 |
| TGAGCAAGGT | 1.203 ± 0.0039 |
| CTTTACTTCC | 2.1 ± 0.024 |
| AGCTGTGTGG | 1.01 ± 0.012 |
| ACAGGAGTTC | 0.968 ± 0.053 |
| GGCTTGCGTA | 0.9512 ± 0.0029 |
| TGATCGTCTG | 1.031 ± 0.0017 |
| ATTGTTTGAT | 1.01 ± 0.022 |
| TATATTGGGC | 0.968 ± 0.049 |
| AGATAGTTGT | 1.01 ± 0.016 |
| ATAGGGTGAT | 1.03 ± 0.021 |
| TAGTAGACGA | 0.982 ± 0.034 |
| AATCCAATGT | 1.003 ± 0.0069 |
| GACAAAGCGG | 1.07 ± 0.041 |
| TTTCCTTGTT | 1.09 ± 0.057 |
| TGGGGTTACT | 1.01 ± 0.015 |
| GACGTCGGTC | 0.9984 ± 0.0089 |
| CAAAAGTGGG | 0.9928 ± 0.0018 |
| CGGGACCCCC | 1.141 ± 0.011 |

| Sequence | switch fluorescence ratio |
| --- | --- |
| ACGCTCCAGC | 1.056 ± 0.0053 |
| ATTTTAATTT | 1.01 ± 0.015 |
| GGTTGCAGCC | 1.02 ± 0.026 |
| TGGGGCCTGT | 0.978 ± 0.023 |
| TGCCGGGGTC | 1 ± 0.048 |
| CAGTTGGGTA | 0.98 ± 0.028 |
| TTCTGTTTTG | 1.01 ± 0.029 |
| CGGGTATTTG | 1.04 ± 0.028 |
| TGCAAAATTG | 0.995 ± 0.024 |
| GGAGCTTGCA | 1.02 ± 0.023 |
| CCAGTGACAT | 1.03 ± 0.028 |
| TTGGGCAGAG | 0.993 ± 0.043 |
| CGTTTGTATA | 0.987 ± 0.015 |
| ATCAGCCGGC | 0.99 ± 0.034 |
| GGGAAAATTC | 1.06 ± 0.089 |
| CGGGTAGCG | 0.969 ± 0.013 |
| TTTAGTTCGG | 0.998 ± 0.027 |
| ACTTTTACA | 1.155 ± 0.0053 |
| GTGAGTAGGT | 0.974 ± 0.014 |
| ATCCCAATGT | 1.14 ± 0.026 |
| AAGAATTTTT | 1 ± 0.023 |
| TGAGATCTGG | 0.982 ± 0.035 |
| TTGTGGATG | 0.962 ± 0.017 |
| AGGGAGACGG | 1 ± 0.033 |
| GAGCGTAGTA | 1 ± 0.037 |

| Sequence | switch fluorescence ratio |
| --- | --- |
| AAAATTTTAT | 0.989 ± 0.026 |
| GTTTTATCAG | 0.961 ± 0.039 |
| GATATATAAT | 1.014 ± 0.002 |
| TTTTCACTCG | 1.006 ± 0.0038 |
| TTAATAATAT | 1 ± 0.021 |
| TGTGTGATTC | 1.3 ± 0.49 |
| ATCTTTCCTG | 1.053 ± 0.0087 |
| TCTATATTAG | 1.02 ± 0.023 |
| GATCGTATTC | 1.05 ± 0.088 |
| GGTAACGTGA | 1.01 ± 0.023 |
| TCGGTTGGTG | 0.969 ± 0.042 |
| ATTCCTAGGT | 1.33 ± 0.45 |
| AAGAGGTTAC | 0.973 ± 0.049 |
| TTATCTGGGA | 0.9995 ± 0.0079 |
| CGGACCATTC | 1.27 ± 0.032 |
| TAAGTACTTT | 0.977 ± 0.025 |
| CTGAAGGGCG | 0.979 ± 0.044 |
| GTTGGGAAGA | 1.01 ± 0.034 |
| ATTATCTTCT | 0.994 ± 0.061 |
| TATTCAGAAA | 1.02 ± 0.054 |
| TTGTAGGGGG | 1.17 ± 0.4 |
| TGAAGTCGGT | 0.9681 ± 0.0066 |
| GTGACGAAGA | 1.033 ± 0.0065 |
| TTCATATGTT | 0.981 ± 0.012 |
| TTCATGGGT | 1.017 ± 0.0054 |

| Sequence | switch fluorescence ratio |
| --- | --- |
| TCTTCTACCT | 1.2 ± 0.022 |
| ATGTCCGTGG | 0.99 ± 0.014 |
| ATTTATACTG | 1.05 ± 0.052 |
| TGAAAAACCG | 1.14 ± 0.12 |
| AAGTTATATG | 0.987 ± 0.0099 |
| AACTCCACGA | 1.26 ± 0.32 |
| AAAGCTCGTG | 1 ± 0.015 |
| ATTTTCGACA | 1.022 ± 0.0028 |
| GGGGGATGTG | 1.012 ± 0.004 |
| TCCGCGTACG | 2.75 ± 0.056 |
| GTTAGAATGG | 0.981 ± 0.017 |
| ACGCTGCTAC | 4.48 ± 0.3 |
| CATGTGACCA | 0.988 ± 0.038 |
| CTAGATGTGG | 0.983 ± 0.059 |
| TGGGCAGAAG | 0.9744 ± 0.0053 |
| ATTTACGCCT | 1.12 ± 0.05 |
| AATTATAAGA | 0.996 ± 0.027 |
| GCAGGGGACG | 1.05 ± 0.015 |
| AACGGCTTCA | 1.057 ± 0.0029 |
| AGGAGCGCGT | 1.02 ± 0.051 |
| GGTTAAAGAG | 0.9868 ± 0.008 |
| CGTGGTCGTC | 0.991 ± 0.03 |
| CTCTGGGCTT | 0.99826 ± 8.3e-05 |
| AGGGTAAGGT | 1.04 ± 0.082 |
| GATGTGTGGC | 0.974 ± 0.022 |

| Sequence | switch fluorescence ratio |
| --- | --- |
| AGGGTAATTA | 0.979 ± 0.029 |
| GGAGGGGTCG | 1.02 ± 0.033 |
| CCTACGGAAG | 2.07 ± 0.045 |
| TGTGTTAAGA | 0.9898 ± 0.0095 |
| CTGTGTGGGA | 1.01 ± 0.013 |
| TTCATAATA | 1.024 ± 0.0029 |
| ATCCTGTAGT | 0.999 ± 0.044 |
| AGGGCGTGGC | 0.9876 ± 0.0018 |
| AGGTCTGTGG | 0.982 ± 0.04 |
| TGGGGGGGAT | 0.993 ± 0.026 |
| CCAGGGCGCG | 1.004 ± 0.002 |
| GCCTCTGGTC | 0.992 ± 0.028 |
| TTCCGAGGG | 1.102 ± 0.011 |
| AGGGTTCCTG | 0.954 ± 0.036 |
| GGGATAGGAG | 1 ± 0.03 |
| TTCTGTTCTG | 1.01 ± 0.039 |
| AAAGAAACGG | 1.1 ± 0.035 |
| CGAAACCGAC | 2.17 ± 1.2 |
| TCTTTGGTGG | 1.03 ± 0.038 |
| TGTCTATGGG | 0.988 ± 0.023 |
| GACGGCGGGC | 0.989 ± 0.023 |
| TATTTATTTT | 1.01 ± 0.03 |
| AATTACCAAA | 1.01 ± 0.072 |
| GGGGTGGATG | 0.997 ± 0.018 |
| CATTTCAGGA | 1.004 ± 0.0027 |

| Sequence | switch fluorescence ratio |
| --- | --- |
| GTGTTAACCT | 1.25 ± 0.045 |
| GGTCTACTTT | 0.998 ± 0.021 |
| CAGGGATAGG | 1.019 ± 0.0092 |
| TATGGGGGGG | 0.994 ± 0.038 |
| AGAGGGAAGA | 1.01 ± 0.037 |
| AATGTGGGGG | 0.996 ± 0.018 |
| GGGTGAGATT | 1.02 ± 0.015 |
| TCTTAGTTCG | 1.008 ± 0.01 |
| ATCGTACAGC | 1.13 ± 0.017 |
| TTGTGCGACT | 0.98 ± 0.019 |
| TGATAAGTAC | 1.38 ± 0.065 |
| TCATAGGGGC | 1.04 ± 0.012 |
| TTATAAATCT | 1.008 ± 0.0092 |
| GACGGGTGTC | 0.967 ± 0.012 |
| GTGTAGGGGT | 0.9779 ± 0.0083 |
| TATGGACTAG | 1.01 ± 0.025 |
| TTGCCGGGAG | 1.02 ± 0.066 |
| GTTTTTGATG | 0.971 ± 0.021 |
| ATCATTTGGC | 0.981 ± 0.068 |
| AAGCAGTCGA | 1.09 ± 0.015 |
| ATGTTGGGCG | 0.996 ± 0.052 |
| AGTCAGATTC | 1 ± 0.058 |
| CCGGTACTAT | 1.167 ± 0.0092 |
| GCGGCCGGGG | 0.999 ± 0.024 |
| GGTACGGTTT | 1.04 ± 0.02 |

| Sequence | switch fluorescence ratio |
| --- | --- |
| TGAGGGACGC | 0.996 ± 0.021 |
| ACGGCTTTTG | 1.025 ± 0.009 |
| CCATTCAGGT | 1.04 ± 0.065 |
| TTTTGGGGCT | 1.01 ± 0.03 |
| GGTAGCAGTT | 1 ± 0.026 |
| TCGGTAGGG | 0.9717 ± 0.003 |
| GAGTAAAGCA | 1.058 ± 0.0031 |
| GGGCATGAAA | 1.02 ± 0.021 |
| GGTTTTCTAA | 0.9838 ± 0.0051 |
| CGGATTAAAC | 1.04 ± 0.022 |
| AATAGGCAAT | 1.16 ± 0.034 |
| ATTTTAAACG | 0.979 ± 0.021 |
| AAAGGGTGTT | 1.04 ± 0.013 |
| ATGATTTTGG | 0.992 ± 0.023 |
| TGATATTT | 0.991 ± 0.022 |
| CGGTTGTTGG | 0.9787 ± 0.0058 |
| ACGATCTGTT | 1.0155 ± 0.00017 |
| CATTGGTCGC | 0.997 ± 0.035 |
| ATGAGGTCGT | 1.008 ± 0.007 |
| TTGGCTGTTT | 1.016 ± 0.01 |
| GGATCAATGT | 0.998 ± 0.02 |
| GTATTTGTTC | 1.01 ± 0.034 |
| GCTGGTAAGC | 0.9696 ± 0.0029 |
| TAGTTGGCCC | 1.006 ± 0.0034 |
| TAACCTGCCC | 2.26 ± 0.12 |

| Sequence | switch fluorescence ratio |
| --- | --- |
| GGCACGTATA | 1.17 ± 0.014 |
| ATGTAACGTT | 1.006 ± 0.0088 |
| CAGGGCCATA | 1.02 ± 0.0042 |
| AACAGGCTGG | 1.01 ± 0.013 |
| CTGATGGGG | 0.986 ± 0.021 |
| ATAATTCATG | 0.981 ± 0.029 |
| TGAATAGTGT | 0.996 ± 0.044 |
| TCGAACTCTT | 1.03 ± 0.021 |
| ACGATTTTGC | 1.04 ± 0.033 |
| AGATTAGTTG | 1.016 ± 0.0039 |
| TTTTAGGCGT | 0.99 ± 0.013 |
| CGTATCAGGG | 1.01 ± 0.032 |
| AAACAAACCC | 1.01 ± 0.042 |
| ATAGAGGTGG | 0.9979 ± 0.0022 |
| AGGGAGGTGT | 0.997 ± 0.036 |
| TGGTCGGTAG | 0.9855 ± 0.0023 |
| GAAATGGGGA | 1 ± 0.017 |
| GTGGGTTCGC | 1 ± 0.043 |
| GGGGTAGATC | 1.05 ± 0.013 |
| TGTCGTAATT | 1 ± 0.011 |
| GGTCCGTAGT | 1.04 ± 0.017 |
| TTGCTTAAGT | 1.03 ± 0.075 |
| GCGTTAAAAG | 1.03 ± 0.02 |
| CTTTTAGGGT | 0.996 ± 0.024 |
| CGTCATGCGT | 0.964 ± 0.025 |
